Measurements reported in patent EP4755912A1 (Shandong Boan Biotechnology Co., Ltd., dated 2026).
Where two headings read alike, the source gives them in different places.

T1: Human CD228 protein (human, UniProt P08582 20-708, limits assumed)
T1 construct: A His tag is named only for the panning and Western blot material (CD228-His); also called CD228 antigenic protein; C28
T1 sequence: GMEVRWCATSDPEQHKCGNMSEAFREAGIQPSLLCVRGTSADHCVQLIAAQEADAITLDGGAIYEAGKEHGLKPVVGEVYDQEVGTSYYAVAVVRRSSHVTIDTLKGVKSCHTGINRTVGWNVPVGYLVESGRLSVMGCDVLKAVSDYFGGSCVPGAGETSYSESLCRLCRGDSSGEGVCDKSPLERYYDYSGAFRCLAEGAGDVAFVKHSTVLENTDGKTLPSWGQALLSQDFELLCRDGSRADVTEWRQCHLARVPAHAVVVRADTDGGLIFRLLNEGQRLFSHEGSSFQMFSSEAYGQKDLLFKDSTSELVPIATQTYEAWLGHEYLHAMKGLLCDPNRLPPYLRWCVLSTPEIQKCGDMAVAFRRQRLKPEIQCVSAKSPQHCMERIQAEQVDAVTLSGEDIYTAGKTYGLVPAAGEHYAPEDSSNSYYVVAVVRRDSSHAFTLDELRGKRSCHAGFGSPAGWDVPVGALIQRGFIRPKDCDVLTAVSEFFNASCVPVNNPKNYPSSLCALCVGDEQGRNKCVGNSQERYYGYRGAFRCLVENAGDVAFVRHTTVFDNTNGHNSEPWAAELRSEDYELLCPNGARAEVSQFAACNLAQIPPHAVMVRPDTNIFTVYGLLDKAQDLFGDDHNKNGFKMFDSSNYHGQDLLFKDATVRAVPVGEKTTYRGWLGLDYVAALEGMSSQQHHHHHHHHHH


What was measured:
Human CD228 protein [1] = target: T1, Human CD228 protein; experiment: ELISA, plate coated with CD228 protein at 0.2 µg/mL
Human CD228 protein [2] = target: T1, Human CD228 protein; experiment: BLI, antibody on ProA sensor, CD228 protein in solution
Human CD228 protein [3] = target: T1, Human CD228 protein; experiment: as above; remark: listed apart in the source

Binder	EC50 (Human CD228 protein [1]) [ng/mL]	Kd (Human CD228 protein [2]) [nM]	Response (Human CD228 protein [2])	Kd (Human CD228 protein [3]) [nM]
R546 (antibody, V domains shown, Rabbit-derived clone from a phage library, made as a full-length antibody with rabbit constant regions in HEK293 cells; also called CD228-R546; self-made antibody R546) VH: QSLEESGGRLVKPDETLTLTCTVSGFSLSSYDMSWVRQAPGKGLQWIGAATAGGNTYHASWAKGRFTISKTSTTVDLKITSPTTEDTATYFCTRGLNIWGPGTLVTVSS VL: DPMLTQTASPVSAAVGSTVTINCQASQSVYNNNNLNWYQQKPGQPPKLLIYAASTLASGVPSRFKGSGSGTQFTLTISDVQCDDAATYYCLGAYDCSSADCGAFGGGTELEILG	1.52	1.33	0.128	1.33
R526 (antibody, V domains shown, Rabbit-derived clone, full-length antibody with rabbit constant regions) VH: QEQLEESGGRLVTPGTPLTLTCTVSGFSLSTYAINWIRQAPGKGLEWIGIIGGNGATYYTNWAKGRFTISKTSTTVDLKITSPTIEDTATYFCARGTNFWGPGTLVTVSS VL: DPVLTQTASPVSAAVGGTITINCQASQSVYNNNQLSWFQQNPGQPPKRLIHSTSTLAPGVSSRFKGSGSGTQFTLTISDVQCDDAATYYCLGSYDCVSADCNAFGGGTEVVVKG	5.71	< 0.001	0.0251	–
